To fix the notation:
B1: Poly(rC)-binding protein 1, residues 278 to 350; numbered along this chain, Q15365 (parent)
chain: TQTTHELTIPNNLIGCIIGRQGANINEIRQMSGAQIKIANPVEGSSGRQVTITGSAASISLAQYLINARLSSE

For 167 variants, abundance fitness results are on record in the Human Domainome abundance scans (Beltran et al. 2025).

± gives the uncertainty stated by the source.

Variants of B1 are the subject of the series. Briefly: abundance fitness (aPCA) (normalised: wild type 0, dead -1); higher = more abundant; growth selection in yeast, the domain comes from the species named. To be noted: Homo sapiens.
With G22P, the abundance fitness was -0.583 ± 0.074.

With G22S, the abundance fitness came to 0.01 ± 0.038.

On to G22D, for which the abundance fitness is -0.249 ± 0.095.

Regarding G22Y, the abundance fitness is -0.383 ± 0.18.

Regarding G22H, the abundance fitness was -0.122 ± 0.16.

In the case of G22N, the abundance fitness stood at 0.089 ± 0.12.

Take G22K: the abundance fitness is -0.329 ± 0.13.

For G22Q, the abundance fitness is -0.228 ± 0.057.

As to G22V, the abundance fitness was -0.703 ± 0.072.

Consider G22T, for which the abundance fitness was -0.373 ± 0.073.

For G22C, the abundance fitness was -0.113 ± 0.05.

Regarding G22R, the abundance fitness is -0.271 ± 0.048.

In the case of N11A, the abundance fitness was -0.075 ± 0.054.

Turning to N11S, the abundance fitness is -0.09 ± 0.064.

Take N11R: the abundance fitness is -0.264 ± 0.049.

N11C: the abundance fitness is -0.165 ± 0.1.

For N11T, the abundance fitness is -0.169 ± 0.084.

As for N11P, the abundance fitness is -0.347 ± 0.077.

As to N11H, the abundance fitness is -0.025 ± 0.16.

On to N11D, for which the abundance fitness was 0.186 ± 0.076.

N11W: the abundance fitness is -0.425 ± 0.075.

In the case of N11K, the abundance fitness is -0.171 ± 0.098.

In the case of N11L, the abundance fitness is -0.473 ± 0.084.

For N11I, the abundance fitness is -0.21 ± 0.21.

Regarding N11V, the abundance fitness was -0.352 ± 0.061.

For N11E, the abundance fitness was -0.045 ± 0.061.

On to N11Y, for which the abundance fitness was -0.549 ± 0.26.

As to N11M, the abundance fitness was -0.28 ± 0.1.

Consider N11F, for which the abundance fitness is -0.061 ± 0.11.

T8K: the abundance fitness was -0.128 ± 0.11.

In the case of T8D, the abundance fitness amounted to 0.144 ± 0.097.

Regarding T8V, the abundance fitness is 0.207 ± 0.042.

In the case of T8I, the abundance fitness was -0.008 ± 0.14.

Consider T8G, for which the abundance fitness was -0.559 ± 0.049.

For T8Q, the abundance fitness is -0.076 ± 0.094.

In the case of T8N, the abundance fitness was 0.081 ± 0.13.

Turning to T8C, the abundance fitness is 0.098 ± 0.078.

Regarding T8W, the abundance fitness is -0.064 ± 0.049.

On to T8H, for which the abundance fitness was determined as 0.017 ± 0.13.

For the variant T8M, the abundance fitness was found to be 0.028 ± 0.085.

Take T8A: the abundance fitness was -0.124 ± 0.053.

T8L: the abundance fitness is -0.032 ± 0.052.

Consider T8Y, for which the abundance fitness came to 0.05 ± 0.11.

Regarding T8E, the abundance fitness is 0.069 ± 0.052.

With T8S, the abundance fitness is -0.074 ± 0.066.

Consider T8R, for which the abundance fitness was -0.028 ± 0.036.

I14K: the abundance fitness was -0.855 ± 0.23.

As to I14T, the abundance fitness was -0.17 ± 0.09.

Turning to I14S, the abundance fitness is -0.367 ± 0.067.

In the case of I14M, the abundance fitness was -0.118 ± 0.07.

On to I14H, for which the abundance fitness is -0.485 ± 0.24.

With I14F, the abundance fitness was -0.378 ± 0.17.

I14V: the abundance fitness was -0.116 ± 0.042.

As for I14L, the abundance fitness was -0.115 ± 0.055.

Regarding I14D, the abundance fitness is -0.876 ± 0.14.

In the case of I14W, the abundance fitness was -0.689 ± 0.11.

Take I14N: the abundance fitness is -0.762 ± 0.26.

With I14P, the abundance fitness is -0.647 ± 0.14.

Take I14G: the abundance fitness was -0.948 ± 0.089.

For I14R, the abundance fitness was -0.573 ± 0.072.

With I14Q, the abundance fitness is -0.73 ± 0.16.

For I14A, the abundance fitness was -0.228 ± 0.055.

Regarding I14C, the abundance fitness is -0.252 ± 0.088.

I14E: the abundance fitness was -0.769 ± 0.13.

As for G19H, the abundance fitness is -0.833 ± 0.5.

As to G19S, the abundance fitness is -0.473 ± 0.082.

As to G19M, the abundance fitness is -0.774 ± 0.17.

For the variant G19W, the abundance fitness is -0.831 ± 0.13.

On to G19I, for which the abundance fitness is -0.583 ± 0.25.

Take G19E: the abundance fitness is -0.431 ± 0.091.

On to G19A, for which the abundance fitness was -0.481 ± 0.068.

Consider G19D, for which the abundance fitness is -0.321 ± 0.16.

In the case of G19T, the abundance fitness was -0.732 ± 0.15.

In the case of G19R, the abundance fitness is -0.609 ± 0.067.

With G19Q, the abundance fitness is -0.532 ± 0.11.

Turning to G19V, the abundance fitness is -0.991 ± 0.12.

Consider G19N, for which the abundance fitness is -0.655 ± 0.35.

Regarding G19L, the abundance fitness was -0.815 ± 0.13.

For the variant G19P, the abundance fitness was -0.423 ± 0.1.

With G19K, the abundance fitness was -0.194 ± 0.13.

As for N24W, the abundance fitness was -0.161 ± 0.048.

On to N24Y, for which the abundance fitness turned out to be 0.01 ± 0.14.

As for N24F, the abundance fitness was -0.13 ± 0.11.

N24R: the abundance fitness came to 0.066 ± 0.032.

Consider N24A, for which the abundance fitness was 0.007 ± 0.041.

As to N24S, the abundance fitness was -0.033 ± 0.046.

Take N24L: the abundance fitness was -0.134 ± 0.042.

Turning to N24E, the abundance fitness was -0.01 ± 0.063.

For N24K, the abundance fitness came to 0.076 ± 0.067.

N24G: the abundance fitness is -0.04 ± 0.037.

N24D: the abundance fitness is -0.003 ± 0.098.

N24C: the abundance fitness was -0.196 ± 0.077.

N24P: the abundance fitness is -0.088 ± 0.048.

For the variant N24M, the abundance fitness was determined as 0.038 ± 0.073.

With N24V, the abundance fitness is -0.048 ± 0.046.

With N24H, the abundance fitness is -0.049 ± 0.067.

On to N24I, for which the abundance fitness was -0.06 ± 0.12.

In the case of N24Q, the abundance fitness is 0.002 ± 0.056.

Take R20F: the abundance fitness is 0.1 ± 0.1.

Consider R20L, for which the abundance fitness is -0.035 ± 0.04.

Regarding R20C, the abundance fitness is -0.04 ± 0.068.

With R20D, the abundance fitness is 0.042 ± 0.12.

For R20S, the abundance fitness is -0.082 ± 0.043.

Regarding R20P, the abundance fitness turned out to be 0.155 ± 0.053.

For the variant R20Q, the abundance fitness is -0.008 ± 0.064.

As to R20T, the abundance fitness is -0.167 ± 0.067.

Consider R20Y, for which the abundance fitness came out at 0.019 ± 0.093.

Take R20A: the abundance fitness was found to be 0.028 ± 0.038.

In the case of R20W, the abundance fitness was -0.188 ± 0.053.

With R20I, the abundance fitness is -0.074 ± 0.12.

In the case of R20E, the abundance fitness was 0.012 ± 0.062.

In the case of R20N, the abundance fitness was determined as 0.27 ± 0.09.

As for R20H, the abundance fitness came to 0.139 ± 0.1.

On to R20V, for which the abundance fitness was -0.031 ± 0.043.

R20M: the abundance fitness was -0.138 ± 0.064.

R20G: the abundance fitness was -0.173 ± 0.038.

Consider R20K, for which the abundance fitness was 0.048 ± 0.071.

For the variant N12K, the abundance fitness is -0.004 ± 0.063.

For the variant N12M, the abundance fitness is -0.316 ± 0.083.

Take N12V: the abundance fitness was -0.306 ± 0.06.

Turning to N12S, the abundance fitness is -0.022 ± 0.047.

In the case of N12C, the abundance fitness was -0.267 ± 0.12.

N12E: the abundance fitness is -0.202 ± 0.067.

As to N12H, the abundance fitness is -0.009 ± 0.1.

For the variant N12A, the abundance fitness is -0.148 ± 0.049.

In the case of N12R, the abundance fitness came to 0.027 ± 0.039.

With N12L, the abundance fitness is -0.35 ± 0.061.

In the case of N12D, the abundance fitness was -0.272 ± 0.11.

With N12P, the abundance fitness was -0.186 ± 0.073.

Take N12F: the abundance fitness is -0.459 ± 0.23.

Turning to N12G, the abundance fitness was -0.282 ± 0.045.

For the variant N12T, the abundance fitness was -0.053 ± 0.062.

In the case of I18P, the abundance fitness was -0.808 ± 0.1.

With I18T, the abundance fitness was -0.218 ± 0.054.

In the case of I18R, the abundance fitness is -0.636 ± 0.049.

Turning to I18H, the abundance fitness was -0.767 ± 0.15.

As for I18F, the abundance fitness is -0.321 ± 0.13.

On to I18S, for which the abundance fitness is -0.433 ± 0.059.

With I18K, the abundance fitness was -0.435 ± 0.07.

For the variant I18N, the abundance fitness was -0.156 ± 0.13.

As for I18Q, the abundance fitness is -0.756 ± 0.087.

Consider I18C, for which the abundance fitness was -0.616 ± 0.097.

As to I18V, the abundance fitness is -0.367 ± 0.046.

Consider I18L, for which the abundance fitness is -0.355 ± 0.041.

On to I18G, for which the abundance fitness was -0.565 ± 0.077.

In the case of I18E, the abundance fitness is -0.118 ± 0.068.

On to I18W, for which the abundance fitness is -0.232 ± 0.047.

I18D: the abundance fitness was -0.39 ± 0.091.

Take I18A: the abundance fitness is -0.316 ± 0.048.

Take I17C: the abundance fitness was -0.928 ± 0.26.

For I17A, the abundance fitness was -0.715 ± 0.083.

Consider I17G, for which the abundance fitness was -0.585 ± 0.081.

Take I17L: the abundance fitness is -0.022 ± 0.039.

Take I17K: the abundance fitness was -1.09 ± 0.29.

With I17W, the abundance fitness was -0.663 ± 0.1.

In the case of I17S, the abundance fitness was -0.733 ± 0.091.

For I17Y, the abundance fitness is -0.665 ± 0.2.

In the case of I17Q, the abundance fitness is -0.878 ± 0.14.

I17E: the abundance fitness is -0.782 ± 0.2.

I17D: the abundance fitness was -0.506 ± 0.15.

Turning to I17H, the abundance fitness is -0.831 ± 0.2.

For I17V, the abundance fitness is -0.106 ± 0.05.

In the case of I17M, the abundance fitness was -0.562 ± 0.086.

Consider I17T, for which the abundance fitness was -0.6 ± 0.11.

As for I17P, the abundance fitness is -1.17 ± 0.24.

I17F: the abundance fitness was -0.177 ± 0.13.

For the variant I17R, the abundance fitness is -0.98 ± 0.087.
